T1: TLT-1 receptor on the surface of activated human platelets (human, UniProt Q86YW5 16-311)
T1 sequence: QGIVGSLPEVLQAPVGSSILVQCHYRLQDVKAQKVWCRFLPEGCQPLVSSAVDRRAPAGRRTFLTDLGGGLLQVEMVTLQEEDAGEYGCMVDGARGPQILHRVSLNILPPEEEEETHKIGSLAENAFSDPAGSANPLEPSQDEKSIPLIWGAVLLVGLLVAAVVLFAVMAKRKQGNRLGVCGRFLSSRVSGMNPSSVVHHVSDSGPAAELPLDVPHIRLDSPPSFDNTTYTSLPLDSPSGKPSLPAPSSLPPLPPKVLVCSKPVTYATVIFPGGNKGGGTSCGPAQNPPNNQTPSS

T2: TLT-1 18-188 relipidated in 20:80 PS:PC vesicles (human, UniProt Q86YW5 18-188)
T2 sequence: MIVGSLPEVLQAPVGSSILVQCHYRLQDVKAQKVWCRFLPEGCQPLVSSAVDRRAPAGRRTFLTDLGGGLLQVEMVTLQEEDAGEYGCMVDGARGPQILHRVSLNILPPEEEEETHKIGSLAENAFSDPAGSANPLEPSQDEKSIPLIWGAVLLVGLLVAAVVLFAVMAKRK

T3: TLT-1 receptor on the surface of activated human platelets (human) (UniProt Q86YW5)
T3 sequence: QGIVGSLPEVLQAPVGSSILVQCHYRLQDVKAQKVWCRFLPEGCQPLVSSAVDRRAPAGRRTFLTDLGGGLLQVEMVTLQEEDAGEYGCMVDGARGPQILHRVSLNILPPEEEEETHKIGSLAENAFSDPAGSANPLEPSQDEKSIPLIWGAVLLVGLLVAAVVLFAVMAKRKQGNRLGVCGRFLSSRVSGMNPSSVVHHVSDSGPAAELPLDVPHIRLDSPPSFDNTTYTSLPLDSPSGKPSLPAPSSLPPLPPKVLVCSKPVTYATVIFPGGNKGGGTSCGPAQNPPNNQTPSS

T4: TLT-1 18-188 relipidated in 20:80 PS:PC vesicles (human) (UniProt Q86YW5)
T4 sequence: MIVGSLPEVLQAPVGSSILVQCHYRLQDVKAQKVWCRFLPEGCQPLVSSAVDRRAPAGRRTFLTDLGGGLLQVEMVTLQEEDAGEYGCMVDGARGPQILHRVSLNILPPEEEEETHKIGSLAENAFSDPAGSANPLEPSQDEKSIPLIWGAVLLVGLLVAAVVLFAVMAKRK


Legend:
[1] = molecular target: T1, TLT-1 receptor on the surface of …; experiment: cell-based or functional assay
[2] = molecular target: T2, TLT-1 18-188 relipidated in 20:80 PS:PC …; experiment: cell-based or functional assay
[3] = molecular target: T3, TLT-1 receptor on the surface of activated human platelets (human)
[4] = molecular target: T4, TLT-1 18-188 relipidated in 20:80 PS:PC vesicles (human)

Binder	FVII-mediated FXa generation % Activity activated plts (n 1) [1] [%]	FVIIa-mediated FXa generation % Activity activated plts (n 1) [1] [%]	FVII-mediated FXa generation % Activity lipidated TLT-1 [2] [%]	FVIIa-mediated FXa generation % Activity lipidated TLT-1 [2] [%]	FVII-mediated FXa generation % Activity activated plts (n 4) [3] [%]	FVIIa-mediated FXa generation % Activity activated plts (n 4) [3] [%]	FVII-mediated FXa generation % Activity lipidated TLT-1 [4] [%]	FVIIa-mediated FXa generation % Activity lipidated TLT-1 [4] [%]	FVII-mediated FXa generation % Activity activated plts (n 1) [3] [%]	FVIIa-mediated FXa generation % Activity activated plts (n 2) [3] [%]
Fab 0051-VH-CH1-L4a-TF;LC-HPC4 (other) VH-CH1-linker-TF: QVQLEQSGAELVRPGVSVKISCKGSGYTFTDYSMHWVKQSHAKSLEWIGVISTYYGDVRYNQKFKGKATMTVDKSSSTAYMALARLTSEDSAIYYCARAPMITTGAWFAYWGQGTLVTVSAASTKGPSVFPLAPCSRSTSESTAALGCLVKDYFPEPVTVSWNSGALTSGVHTFPAVLQSSGLYSLSSVVTVPSSSLGTKTYTCNVDHKPSNTKVDKRVESKGSGGGGSGGGGSGGGGSSGTTNTVAAYNLTWKSTNFKTILEWEPKPVNQVYTVQISTKSGDWKSKCFYTTDTECDLTDEIVKDVKQTYLARVFSYPAGNVESTGSAGEPLYENSPEFTPYLETNLGQPTIQSFEQVGTKVNVTVEDERTLVRRNNTFLSLRDVFGKDLIYTLYYWKSSSSGKKTAKTNTNEFLIDVDKGENYCFSVQAVIPSRTVNRKSTDSPVECMGQEKGEFRE light chain-HPC4: SIVMTQTPKFLLVSAGDRVTITCKASQSVSNDVAWYQQKPGQSPKLLINYASSRYTGIPDRFTGSGYGTDFTFTISTVQAEDLAVYFCQQDYSSPYTFGGGTKLEIERTVAAPSVFIFPPSDEQLKSGTASVVCLLNNFYPREAKVQWKVDNALQSGNSQESVTEQDSKDSTYSLSSTLTLSKADYEKHKVYACEVTHQGLSSPVTKSFNRGECEDQVDPRLIDGK	43	72	22	48	–	–	–	–	–	–
Fab 0052-LC-L4a-TF;VH-CH1-HPC4 (other) light chain-linker-TF: DIQMTQTTSSLSASLGDRVTISCRASQDISNYLNWYQQKPDGTVKLLIFYTSRLHSGVPSRFSGSGSGTDYSLTISNLEPEDIATYYCQQDTKLPYTFGGGTKLEMKRTVAAPSVFIFPPSDEQLKSGTASVVCLLNNFYPREAKVQWKVDNALQSGNSQESVTEQDSKDSTYSLSSTLTLSKADYEKHKVYACEVTHQGLSSPVTKSFNRGECGSGGGGSGGGGSGGGGSSGTTNTVAAYNLTWKSTNFKTILEWEPKPVNQVYTVQISTKSGDWKSKCFYTTDTECDLTDEIVKDVKQTYLARVFSYPAGNVESTGSAGEPLYENSPEFTPYLETNLGQPTIQSFEQVGTKVNVTVEDERTLVRRNNTFLSLRDVFGKDLIYTLYYWKSSSSGKKTAKTNTNEFLIDVDKGENYCFSVQAVIPSRTVNRKSTDSPVECMGQEKGEFRE VH-CH1-HPC4: QVQLQQSGAEPMKPGASVKISCKATGYTFSSHWIEWIKQRPGHGLEWIGEILPGSGNTNYNEKFKGKATFTADTSSNTAYMQLSSLTSEDSAVYCCARGYYGLNYDWYFDVWGAGTTVTVSSASTKGPSVFPLAPCSRSTSESTAALGCLVKDYFPEPVTVSWNSGALTSGVHTFPAVLQSSGLYSLSSVVTVPSSSLGTKTYTCNVDHKPSNTKVDKRVESKEDQVDPRLIDGK	–	20	9	29	–	–	–	–	–	–
Fab 0012-TF-L4b-VH-CH1;LC-HPC4 (protein) TF-linker-VH-CH1: SGTTNTVAAYNLTWKSTNFKTILEWEPKPVNQVYTVQISTKSGDWKSKCFYTTDTECDLTDEIVKDVKQTYLARVFSYPAGNVESTGSAGEPLYENSPEFTPYLETNLGQPTIQSFEQVGTKVNVTVEDERTLVRRNNTFLSLRDVFGKDLIYTLYYWKSSSSGKKTAKTNTNEFLIDVDKGENYCFSVQAVIPSRTVNRKSTDSPVECMGQEKGEFREGGGGSGGGGSGGGGSGSEVKLLESGGGLVQPGGSLKLSCAASGFDFSRYWMTWVRQAPGKGLEWIGEINPDSSTINYTPSLKDKFIISRDNAKNTLYLQMSEVRSEDTALYYCASGVFTSWGQGTLVTVSAASTKGPSVFPLAPCSRSTSESTAALGCLVKDYFPEPVTVSWNSGALTSGVHTFPAVLQSSGLYSLSSVVTVPSSSLGTKTYTCNVDHKPSNTKVDKRVESK light chain-HPC4: DVVMTQTPLSLPVSLGDQASISCRSSQSLVHRNGNTYFHWCLQKPGQSPKLLIYKVSNRFSGVPDRFSGSGSGTDFTLKISRVEAEDLGVYFCSQSTHVPYTFGGGTKLEIKRTVAAPSVFIFPPSDEQLKSGTASVVCLLNNFYPREAKVQWKVDNALQSGNSQESVTEQDSKDSTYSLSSTLTLSKADYEKHKVYACEVTHQGLSSPVTKSFNRGECEDQVDPRLIDGK	–	–	–	–	–	–	0	0	5	5
Fab 0052-VH-CH1-L4a-TF;LC-HPC4 (other) VH-CH1-linker-TF: QVQLQQSGAEPMKPGASVKISCKATGYTFSSHWIEWIKQRPGHGLEWIGEILPGSGNTNYNEKFKGKATFTADTSSNTAYMQLSSLTSEDSAVYCCARGYYGLNYDWYFDVWGAGTTVTVSSASTKGPSVFPLAPCSRSTSESTAALGCLVKDYFPEPVTVSWNSGALTSGVHTFPAVLQSSGLYSLSSVVTVPSSSLGTKTYTCNVDHKPSNTKVDKRVESKGSGGGGSGGGGSGGGGSSGTTNTVAAYNLTWKSTNFKTILEWEPKPVNQVYTVQISTKSGDWKSKCFYTTDTECDLTDEIVKDVKQTYLARVFSYPAGNVESTGSAGEPLYENSPEFTPYLETNLGQPTIQSFEQVGTKVNVTVEDERTLVRRNNTFLSLRDVFGKDLIYTLYYWKSSSSGKKTAKTNTNEFLIDVDKGENYCFSVQAVIPSRTVNRKSTDSPVECMGQEKGEFRE light chain-HPC4: DIQMTQTTSSLSASLGDRVTISCRASQDISNYLNWYQQKPDGTVKLLIFYTSRLHSGVPSRFSGSGSGTDYSLTISNLEPEDIATYYCQQDTKLPYTFGGGTKLEMKRTVAAPSVFIFPPSDEQLKSGTASVVCLLNNFYPREAKVQWKVDNALQSGNSQESVTEQDSKDSTYSLSSTLTLSKADYEKHKVYACEVTHQGLSSPVTKSFNRGECEDQVDPRLIDGK	10	25	13	29	–	–	–	–	–	–

Second part, the binder after the results:

FVII-mediated FXa generation % Activity activated plts (n 1) [1] [%]	FVIIa-mediated FXa generation % Activity activated plts (n 1) [1] [%]	FVII-mediated FXa generation % Activity lipidated TLT-1 [2] [%]	FVIIa-mediated FXa generation % Activity lipidated TLT-1 [2] [%]	FVII-mediated FXa generation % Activity activated plts (n 4) [3] [%]	FVIIa-mediated FXa generation % Activity activated plts (n 4) [3] [%]	FVII-mediated FXa generation % Activity lipidated TLT-1 [4] [%]	FVIIa-mediated FXa generation % Activity lipidated TLT-1 [4] [%]	FVII-mediated FXa generation % Activity activated plts (n 1) [3] [%]	FVIIa-mediated FXa generation % Activity activated plts (n 2) [3] [%]	Binder
14	45	26	53	–	–	–	–	–	–	Fab 0023-VH-CH1-L4a-TF;LC-HPC4 (other) VH-CH1-linker-TF: EVRLVESGGGLVQPGGSLKLSCATSGFTFSDYFMYWIRQTPEKRLEWVAYISNGGDSSSYPDTVKGRFTISRDNAKNTLYLQMSRLKSEDTAMYYCATNKNWDDYYDMDYWGQGTSVTVSSASTKGPSVFPLAPCSRSTSESTAALGCLVKDYFPEPVTVSWNSGALTSGVHTFPAVLQSSGLYSLSSVVTVPSSSLGTKTYTCNVDHKPSNTKVDKRVESKGSGGGGSGGGGSGGGGSSGTTNTVAAYNLTWKSTNFKTILEWEPKPVNQVYTVQISTKSGDWKSKCFYTTDTECDLTDEIVKDVKQTYLARVFSYPAGNVESTGSAGEPLYENSPEFTPYLETNLGQPTIQSFEQVGTKVNVTVEDERTLVRRNNTFLSLRDVFGKDLIYTLYYWKSSSSGKKTAKTNTNEFLIDVDKGENYCFSVQAVIPSRTVNRKSTDSPVECMGQEKGEFRE light chain-HPC4: DIVVSQSPSSLAVSAGEKVTMSCKSSQSLLNSRTRKNYLAWYQQKPGQSPKLLIYWASTRESGVPDRFTGSGSGTDFTLTISSVQAEDLAVYYCKQSYNLLTFGAGTKLELKRTVAAPSVFIFPPSDEQLKSGTASVVCLLNNFYPREAKVQWKVDNALQSGNSQESVTEQDSKDSTYSLSSTLTLSKADYEKHKVYACEVTHQGLSSPVTKSFNRGECEDQVDPRLIDGK
2	4	1	13	–	–	–	–	–	–	hTF.1-219 (soluble tissue factor) (receptor) SGTTNTVAAYNLTWKSTNFKTILEWEPKPVNQVYTVQISTKSGDWKSKCFYTTDTECDLTDEIVKDVKQTYLARVFSYPAGNVESTGSAGEPLYENSPEFTPYLETNLGQPTIQSFEQVGTKVNVTVEDERTLVRRNNTFLSLRDVFGKDLIYTLYYWKSSSSGKKTAKTNTNEFLIDVDKGENYCFSVQAVIPSRTVNRKSTDSPVECMGQEKGEFRE
–	–	–	–	71	80	98	106	–	–	Fab 0012-VH-CH1-L0-TF;LC-HPC4 (protein) VH-CH1-TF, no linker: EVKLLESGGGLVQPGGSLKLSCAASGFDFSRYWMTWVRQAPGKGLEWIGEINPDSSTINYTPSLKDKFIISRDNAKNTLYLQMSEVRSEDTALYYCASGVFTSWGQGTLVTVSAASTKGPSVFPLAPCSRSTSESTAALGCLVKDYFPEPVTVSWNSGALTSGVHTFPAVLQSSGLYSLSSVVTVPSSSLGTKTYTCNVDHKPSNTKVDKRVESKSGTTNTVAAYNLTWKSTNFKTILEWEPKPVNQVYTVQISTKSGDWKSKCFYTTDTECDLTDEIVKDVKQTYLARVFSYPAGNVESTGSAGEPLYENSPEFTPYLETNLGQPTIQSFEQVGTKVNVTVEDERTLVRRNNTFLSLRDVFGKDLIYTLYYWKSSSSGKKTAKTNTNEFLIDVDKGENYCFSVQAVIPSRTVNRKSTDSPVECMGQEKGEFRE light chain-HPC4: DVVMTQTPLSLPVSLGDQASISCRSSQSLVHRNGNTYFHWCLQKPGQSPKLLIYKVSNRFSGVPDRFSGSGSGTDFTLKISRVEAEDLGVYFCSQSTHVPYTFGGGTKLEIKRTVAAPSVFIFPPSDEQLKSGTASVVCLLNNFYPREAKVQWKVDNALQSGNSQESVTEQDSKDSTYSLSSTLTLSKADYEKHKVYACEVTHQGLSSPVTKSFNRGECEDQVDPRLIDGK

— patent US20120178908A1 (Novo Nordisk, published 2012)
